Data set [1] is described as follows: Doxorubicin binding/loading to protein.
Data set [2] is described as follows: Curcumin binding/loading to protein.
Data set [3] has as its system β-galactosidase plasmid DNA. As to the kind of experiment: Electrophoretic mobility shift assay (gel retardation) of protein binding to plasmid DNA. To be noted: protein to DNA w/w ratio 18:1. For orientation: A gel shift assay detects complexes by their altered migration in electrophoresis.
Description: The β-galactosidase plasmid DNA (5.1 kb) at a concentration of 50 ng was mixed with different concentrations of CSP and COMPcc and incubated at room temperature for 30 minutes. The mixtures were run on 1% agarose gel (stained with ethidium bromide) and imaged under UV light using ImageQuant (GE healthcare).
Another data set deals with MC3T3-E1 cells. Kind of data set: Cell viability by MTT assay. The format is cell-based, mouse. How it is done: Cell viability studies. The cells were seeded in 96-well plate at a density of […] in αMEM with 10% FBS and incubated at 37° C. with 5% CO2 overnight. The cytotoxicity of different complexes was evaluated by 3-(4,5-dimethylthiazol-2-yl)-2,5-diphenyl […] bromide, MTT assay. Approximately 10 μL of MTT reagent from 5 mg/mL stock was added to each well and incubated for 4 hours at 37° C. with 5% CO2. After incubation, the entire medium was aspirated and 100 μL of dimethyl sulfoxide was added to each well. The change in absorbance of colored solution was observed using a microplate reader Synergy HT at 570 nm. The percent cell viability was calculated by normalizing the observed absorbance value to that of the control cells without any treatment. The data was represented as the average of quadruplicates±standard deviation.
(In general: Tetrazolium dyes change colour on reduction, which living cells bring about.)

Data set [4] can be described thus: CD spectroscopy temperature scan (melting temperature). Type of data set: physicochemical. The note with it: CD at 222 nm. As to the method: CD spectroscopy. The secondary structure of CSP/COMPcc was analyzed using a Jasco J-815 spectrometer at 10 μM protein concentration in 50 mM Tris-HCl buffer pH 8.0. The wavelength scans were performed at 4° C. over a range of 200-250 nm with a 1 nm step size. Temperature scans were performed at 222 nm from 20° C. to 85° C. with temperature ramp of 1° C./min The observed ellipticity value (Θ) was converted into mean residue ellipticity (MRE) using the standard equation ΘMRE=Θ/(10 cpl) where c is the molar concentration of the protein, p is the path length in centimeters and l is the number of amino acids. The fraction folded was derived using equation F=(ΘA−ΘU)/(ΘN−ΘU), where, ΘA is the MRE observed at given temperature, ΘU is MRE value for completely unfolded protein and ΘN is the MRE value of completely folded protein that is considered at 25° C. The first derivative of fraction folded was used to calculate melting temperature (Tm) of protein. All data were represented as an average of three trials.

In another data set the test system is MCF7. As to the kind of experiment: β-galactosidase gene transfection across different cell lines. The format is cell-based.

B1: COMPcc: cartilage oligomeric matrix protein coiled-coil, parent protein, SEQ ID NO:2 (protein)
chain: MRGSHHHHHHGSGDLAPQMLRELQETNAALQDVRELLRQQVKEITFLKNTVMESDASGKLN
modifications: supercharged coiled-coil protein
Regarding B1, the doxorubicin loading in data set [1] is 26%. Moreover, the curcumin loading in data set [2] turned out to be 64%. The “DNA shift at higher protein to DNA ratio” value in data set [3] is recorded as “negligible DNA shift”.

B2: CSP: engineered supercharged coiled-coil protein, SEQ ID NO:1; COMPcc with eight solvent-exposed residues mutated to arginine (protein)
chain: MRGSHHHHHHGSGRLRPQMLRELQRTNAALRDVRELLRQQVKEITRLKNTVRRSRASGKLN
modifications: supercharged coiled-coil protein
notes: COMPcc with eight solvent-exposed residues mutated to arginine
Regarding B2, in the data set with MC3T3-E1 cells, the “cytotoxicity (in words)” value is given as “not cytotoxic”. The molecule further displayed a doxorubicin loading in data set [1] of 31%. Besides, the “decrease in the melting temperature (Tm) in comparison to the parent COMPcc” value in data set [4] amounted to 10 °C. The molecule also yielded a curcumin loading in data set [2] of 63%. Also, the “β-galactosidase gene transfection (in words)” value in the data set with MCF7 is “drastic increase in transfection”.

The record behind these values is patent publication US9453060B2, “Protein engineered systems for delivery of molecules” (New York University, priority 2013, dated 2016).
